{"source": "patent US20220135694A1", "about": "“NOVEL CD40-BINDING ANTIBODIES” (LAVA THERAPEUTICS B.V., priority 2019, published 2022)", "molecules": {"B1": {"name": "V19t: monovalent anti-CD40 VHH V19 with C-terminal Myc- and His6-tag, SEQ ID NO:15 (protein)", "VHH": "QVQLQESGGGLVQAGGSLRLSCAASGRTFGRSAMGWFRQAPGKEREFVAAIGTRGGSTKYADSVKGRFTISTDNASNTVYLQMDSLKPEDTAVYRCAVRGPGYPSAAIFQDEYHYWGQGTQVTVSSGLEGHSDHMEQKLISEEDLNRISDHHHHHH", "modifications": "antibody sequence"}, "B2": {"name": "V15t (VHH)", "VHH": "EVQLQESGGGLVQAGGSLRLSCVTSGSAFSSDTMGWFRQAPGKQRELVASISSRGVREYADSVKGRFTISRDNAKNTVYLQMNSLQPEDTAVYYCNRGALGLPGYRPYNNWGQGTQVTVSS", "notes": "Llama VHH with C-terminal Myc- and His6-tag; also called monovalent anti-CD40 VHH V15t"}, "B3": {"name": "V15t: monovalent anti-CD40 VHH V15 with C-terminal Myc- and His6-tag, SEQ ID NO:16 (protein)", "VHH": "EVQLQESGGGLVQAGGSLRLSCVTSGSAFSSDTMGWFRQAPGKQRELVASISSRGVREYADSVKGRFTISRDNAKNTVYLQMNSLQPEDTAVYYCNRGALGLPGYRPYNNWGQGTQVTVSSGLEGHSDHMEQKLISEEDLNRISDHHHHHH", "modifications": "antibody sequence"}, "B4": {"name": "V12t (VHH)", "VHH": "QVQLQESGGGLVQAGGSLRLSCAASGLVFKRYSMNWYRQPPGQQRGLVASISDSGVSTNYADSVKGRFTISRDNAKNIGYLQMNSLKPEDTAVYYCNMHTFWGQGTQVTVSS", "notes": "Llama VHH with C-terminal Myc- and His6-tag; also called monovalent anti-CD40 VHH V12t"}, "B5": {"name": "V12-5C8t: bispecific VHH: anti-CD40 V12 joined to anti-Vδ2-TCR 5C8 by Gly4Ser linker, Myc- and His6-tag, SEQ ID NO:37 (protein)", "VHH": "QVQLQESGGGLVQAGGSLRLSCAASGLVFKRYSMNWYRQPPGQQRGLVASISDSGVSTNYADSVKGRFTISRDNAKNIGYLQMNSLKPEDTAVYYCNMHTFWGQGTQVTVSSGGGGSEVQLVESGGGLVQAGGSLRLSCAASGRPFSNYAMGWFRQAPGKEREFVAAISWSGGSTSYADSVKGRFTISRDNAKNTVYLQMNSPKPEDTAIYYCAAQFSGADYGFGRLGIRGYEYDYWGQGTQVTVSSGLEGHSDHMEQKLISEEDLNRISDHHHHHH", "modifications": "antibody sequence"}, "B6": {"name": "V19S76K-5C8 (bispecific antibody)", "chain": "QVQLQESGGGLVQAGGSLRLSCAASGRTFGRSAMGWFRQAPGKEREFVAAIGTRGGSTKYADSVKGRFTISTDNAKNTVYLQMDSLKPEDTAVYRCAVRGPGYPSAAIFQDEYHYWGQGTQVTVSSGGGGSEVQLVESGGGLVQAGGSLRLSCAASGRPFSNYAMGWFRQAPGKEREFVAAISWSGGSTSYADSVKGRFTISRDNAKNTVYLQMNSPKPEDTAIYYCAAQFSGADYGFGRLGIRGYEYDYWGQGTQVTVSS", "notes": "also called bispecific anti-CD40-anti-Vγ9Vδ2 TCR VHH V19S76K-5C8; bsVHH"}}, "key": {"[1]": {"target": "T1, human CD40 (CD40-transfected HEK293T cells) (Homo sapiens, UniProt P25942)", "T1 construct": "expressed in transfected cells; host or cells: HEK293T", "T1 sequence (P25942 21-277)": "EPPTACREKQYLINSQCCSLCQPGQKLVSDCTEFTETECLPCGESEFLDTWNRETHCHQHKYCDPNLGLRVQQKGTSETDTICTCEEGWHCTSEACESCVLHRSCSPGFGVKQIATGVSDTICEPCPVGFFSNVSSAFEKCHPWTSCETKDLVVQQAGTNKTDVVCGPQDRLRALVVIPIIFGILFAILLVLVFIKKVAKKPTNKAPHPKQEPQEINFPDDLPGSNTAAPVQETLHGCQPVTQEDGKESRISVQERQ", "test": "Monovalent VHH binding to CD40-transfected HEK293T cells, Myc-tag flow cytometry", "conditions": "for average geometric mean fluorescence intensity (Myc-tag): CD40-transfected HEK293T cells, 2 experiments; for binding to CD40-expressing cells: detection of the Myc tag, FIG. 1B", "description": "The embryonic kidney cell line HEK293T, either wildtype (WT) or transfected with human CD40, was grown in Dulbecco's Modified Eagle Medium (41965-039, Thermo Fisher Scientific, Waltham, Mass., USA), supplemented with 10% fetal calf serum (F7524, Merck, Kenilworth, N.J., USA), 200 mM L-glutamine (25030-123, Thermo Fisher Scientific), 0.05 mM β-mercapto-ethanol (M6250, Merck) and 10,000 U/mL penicillin/streptomycin (15140-122, Thermo Fisher Scientific), hereafter referred to as complete DMEM.\nCD40 expression on CD40-transfected cells was confirmed by incubation with a PE-conjugated anti-CD40 antibody (IM1936U, Beckman Coulter, Brea, Calif., USA) for 20 minutes at 4° C. […] Bound VHH was detected by sequential incubation with mouse-anti-Myc tag (05-274, Merck) and AF488-conjugated goat-anti-mouse (A-11001, Thermo Fisher Scientific) antibodies for 20 minutes at 4° C.\nSamples were measured on a FACSCanto cytometer (BD Biosciences, Franklin Lakes, N.J., USA) and analyzed with Flowjo MacV10."}, "primary CLL cells": {"test_system": "primary CLL cells", "test": "Monovalent VHH binding to primary CLL cells, flow cytometry", "set-up": "species or system human", "conditions": "n=5 samples; FIG. 2B", "description": "Peripheral blood (PB) mononuclear cells (PBMCs, ≥95% CD5^+CD19^+) were isolated from PB samples from untreated CLL patients and cryopreserved as described previously (Hallaert et al. (2008), Blood 112(13):5141-9). The study was approved by the medical ethics committee at the Amsterdam UMC. Written informed consent from all subjects was obtained. Thawed cells were kept in Iscove's Modified Dulbecco's Medium (IMDM; 12440-053, Thermo Fisher Scientific), supplemented with 10% fetal calf serum (F7524, Merck), 200 mM L-glutamine (25030-123, Thermo Fisher Scientific), 0.05 mM β-mercapto-ethanol (M6250, Merck) and 10.000 U/mL penicillin/streptomycin (15140-122, Thermo Fisher Scientific), hereafter referred to as complete IMDM.\nCD40 expression on primary CLL cells was confirmed and VHH binding was tested as described in Example 2."}, "CD40 [2]": {"target": "T2, CD40 (Homo sapiens, UniProt P25942)", "T2 construct": "Primary chronic lymphocytic leukemia (CLL) cells express CD40 on the cell surface; endogenous in cells; host or cells: primary CLL PBMCs from untreated CLL patients", "T2 sequence (P25942 21-277)": "as above", "test": "CD40 agonistic activity in primary CLL cells, 48 h, flow cytometry", "assay_type": "cell-based", "conditions": "various concentrations, FIG. 3A-C", "description": "PBMCs (≥90% CD5^+CD19^+) from untreated CLL patients were obtained and cryopreserved as described in Example 3. Thawed cells were kept in complete IMDM.\nTo assess whether binding of the VHH to CD40 has agonistic effects, primary CLL PBMCs were cultured for 48 hours in the presence of VHH, medium control or recombinant multimeric CD40 ligand (rmCD40L; 100 ng/mL, Bioconnect).\nAfter 48 hours, cells were harvested, washed and incubated with AF700-conjugated anti-CD19 (557921), FITC-conjugated anti-CD80 (6109965), APC-conjugated anti-CD86 (555660, all BD Biosciences), PE-conjugated anti-CD5 (12-0059-42, Thermo Fisher Scientific) and PECy7-conjugated anti-CD95 (305621, Biolegend, San Diego, Calif., USA) antibodies for 20 minutes at 4° C. Alternatively, after 48 hours, cells were harvested and viability was measured using Mitotracker Orange (25-minute incubation at 37° C.) and To-pro-3 (10-minute incubation at room temperature; both Thermo Fisher Scientific). Samples were measured on a FACSCanto cytometer (BD Biosciences) and analyzed with Flowjo MacV10.\nTo assess whether binding of the VHH has agonistic effects, primary CLL PBMCs were cultured with the indicated concentrations of V19S76K-5C8, medium control or rmCD40L for 48 hours and analyzed by flow cytometry as described in Example 4."}, "CD40 [3]": {"target": "T2, CD40", "test": "CD40 antagonistic activity in primary CLL cells: pre-incubation, then rmCD40L for 48 h", "assay_type": "cell-based", "conditions": "30 min pre-incubation, then rmCD40L 100 ng/mL for 48 hours; FIG. 4A-C", "description": "PBMCs (≥90% CD5^+CD19^+) from untreated CLL patients were obtained and cryopreserved as described in […]. Thawed cells were kept in complete IMDM.\nTo test whether the VHH antagonizes CD40 stimulation, primary CLL PBMCs were pre-incubated with VHH or medium control for 30 minutes at 37° C. and subsequently cultured for 48 hours in the presence of rmCD40L (100 ng/mL).\nAfter 48 hours, cells were analyzed by flow cytometry as described in Example 4.\nTo assess whether binding of the VHH has antagonistic effects, primary CLL PBMCs were pre-incubated with V19S76K-5C8 or medium control and then cultured with rmCD40L for 48 hours and analyzed by flow cytometry as described in Example 5."}, "human CD40 [4]": {"target": "T3, human CD40 (human, UniProt P25942 21-277)", "T3 construct": "In the assays it stood on CD40-transfected HEK293T cells, primary CLL cells or the CLL-derived CII cell line; also called tumor necrosis factor receptor superfamily member 5; TNR5_HUMAN", "T3 sequence (P25942 21-277 limits assumed)": "as the sequence (P25942 21-277) above", "test": "flow cytometry, CD40-transfected HEK293T cells, VHH 1 µM, Myc-tag detection; controls: cells without VHH and WT HEK293T with and without VHH", "description": "FIG. 1: Anti-CD40 VHHs bind to CD40-expressing cells. (A) CD40 expression on WT (filled histogram) and CD40-transfected (unfilled histogram) HEK293T cells. (B) CD40-negative WT or CD40-transfected HEK293T cells were incubated with V12t (1 μM), V15t (1 μM), V19t (1 μM) or medium control and the Myc-tag was subsequently detected by flow cytometry. Representative histograms obtained in 3 independent experiments are shown."}, "CD40+ CII target cells": {"test_system": "CD40+ CII target cells", "test": "Cytotoxicity assay: CII target cells with Vγ9Vδ2-T cells", "assay_type": "cell-based, human", "conditions": "overnight with Vγ9Vδ2-T cells, 1:1 ratio; FIG. 11A", "description": "CD40^+ CII cells and Vγ9Vδ2-T cells were grown as described in Example 7.\nCII target cells were labeled with carboxyfluorescein succinimidyl ester (CFSE; C1157, Thermo Fisher Scientific) and incubated with VHH or medium control for 30 minutes at 37° C. Target cells were then cocultured overnight with Vγ9Vδ2-T cell lines in a 1:1 ratio.\nViability was measured as described in Example 4."}, "human CD40 [5]": {"target": "T3, human CD40", "test": "flow cytometry on CD40+ CII cells, anti-llama IgG detection, non-linear regression", "description": "(§1) FIG. 6: V19S76K-5C8 binds to CD40⁺ and Vγ9Vδ2+ cells. Cell lines were incubated with V19S76K-5C8 or medium control and bound bsVHH was detected using anti-llama IgG heavy and light chain antibodies by flow cytometry. (A) Bar plots and (B) non-linear regression analysis of V19S76K-5C8 binding to healthy donor-derived Vγ9Vδ2-T cell lines (n=3). (C) Bar plots and (D) non-linear regression analysis of V19S76K-5C8 binding to […] CD40⁺ CII cell line (n=3). […] (A, C: repeated-measures one-way ANOVA followed by Dunnett's post hoc test compared to condition without bsVHH; B, D: non-linear regression analysis)."}, "human CD40 [6]": {"target": "T3, human CD40", "test": "flow cytometry, CD40+ CII cell line (n=3), non-linear regression curve", "description": "as §1"}, "[7]": {"target": "human Vγ9Vδ2 T cell receptor (human) (UniProt Q99603)", "test": "flow cytometry, healthy donor-derived Vγ9Vδ2-T cell lines (n=3), non-linear regression curve"}, "[8]": {"target": "human Vγ9Vδ2 T cell receptor (human) (UniProt Q99603)", "test": "flow cytometry on healthy donor-derived Vγ9Vδ2-T cell lines, anti-llama IgG detection, non-linear regression"}}, "data": [{"molecule": "B1", "values": [{"measurement": "average geometric mean fluorescence intensity (Myc-tag)", "setting": "[1]; VHH concentration 1 pM", "value": 5031}, {"measurement": "average geometric mean fluorescence intensity (Myc-tag)", "setting": "[1]; VHH concentration 10 pM", "value": 4938}, {"measurement": "average geometric mean fluorescence intensity (Myc-tag)", "setting": "[1]; VHH concentration 100 pM", "value": 5538}, {"measurement": "average geometric mean fluorescence intensity (Myc-tag)", "setting": "[1]; VHH concentration 1 nM", "value": 6783}, {"measurement": "average geometric mean fluorescence intensity (Myc-tag)", "setting": "[1]; VHH concentration 10 nM", "value": 9101}, {"measurement": "average geometric mean fluorescence intensity (Myc-tag)", "setting": "[1]; VHH concentration 100 nM", "value": 16175}, {"measurement": "binding to CD40-expressing cells", "setting": "[1]", "value": "bound to the CD40-expressing cells"}, {"measurement": "binding to primary CLL cells", "setting": "primary CLL cells", "value": "higher binding intensity than V12t"}, {"measurement": "CD40 stimulation (viability, CD86 and CD95 expression)", "setting": "CD40 [2]", "value": "did not induce any of these effects"}, {"measurement": "prevention of CD40L-induced CD40 stimulation (viability, CD86 and CD95 expression)", "setting": "CD40 [3]", "value": "prevented CD40 stimulation in a dose-dependent manner"}]}, {"molecule": "B2", "values": [{"measurement": "binding result", "setting": "human CD40 [4]", "value": "binds"}]}, {"molecule": "B3", "values": [{"measurement": "binding to CD40-expressing cells", "setting": "[1]", "value": "bound to the CD40-expressing cells"}, {"measurement": "binding to primary CLL cells", "setting": "primary CLL cells", "value": "higher binding intensity than V12t"}, {"measurement": "CD40 stimulation (viability, CD86 and CD95 expression)", "setting": "CD40 [2]", "value": "did not induce any of these effects"}, {"measurement": "prevention of CD40L-induced CD40 stimulation (viability, CD86 and CD95 expression)", "setting": "CD40 [3]", "value": "prevented CD40 stimulation in a dose-dependent manner"}]}, {"molecule": "B4", "values": [{"measurement": "binding result", "setting": "human CD40 [4]", "value": "binds"}]}, {"molecule": "B5", "values": [{"measurement": "lysis of CII target cells", "setting": "CD40+ CII target cells", "value": "less potent"}]}, {"molecule": "B6", "values": [{"measurement": "Kd", "setting": "human CD40 [5]", "value": 10.9, "unit": "nM"}, {"measurement": "EC50 (read off the curve)", "setting": "human CD40 [6]", "value": "~10", "unit": "nM"}, {"measurement": "EC50 (read off the curve)", "setting": "[7]", "value": 1, "unit": "nM"}, {"measurement": "Kd", "setting": "[8]", "value": 1.2, "unit": "nM"}]}]}
